The labels stand for the following.
B1: Phosphothreonine lyase OspF (Shigella flexneri), Q8VSP9 (parent)
chain: MPIKKPCLKLNLDSLNVVRSEIPQMLSANERLKNNFNILYNQIRQYPAYYFKVASNVPTYSDICQSFSVMYQGFQIVNHSGDVFIHACRENPQSKGDFVGDKFHISIAREQVPLAFQILSGLLFSEDSPIDKWKITDMNRVSQQSRVGIGAQFTLYVKSDQECSQYSALLLHKIRQFIMCLESNLLRSKIAPGEYPASDVRPEDWKYVSYRNELRSDRDGSERQEQMLREEPFYRLMIE
partner: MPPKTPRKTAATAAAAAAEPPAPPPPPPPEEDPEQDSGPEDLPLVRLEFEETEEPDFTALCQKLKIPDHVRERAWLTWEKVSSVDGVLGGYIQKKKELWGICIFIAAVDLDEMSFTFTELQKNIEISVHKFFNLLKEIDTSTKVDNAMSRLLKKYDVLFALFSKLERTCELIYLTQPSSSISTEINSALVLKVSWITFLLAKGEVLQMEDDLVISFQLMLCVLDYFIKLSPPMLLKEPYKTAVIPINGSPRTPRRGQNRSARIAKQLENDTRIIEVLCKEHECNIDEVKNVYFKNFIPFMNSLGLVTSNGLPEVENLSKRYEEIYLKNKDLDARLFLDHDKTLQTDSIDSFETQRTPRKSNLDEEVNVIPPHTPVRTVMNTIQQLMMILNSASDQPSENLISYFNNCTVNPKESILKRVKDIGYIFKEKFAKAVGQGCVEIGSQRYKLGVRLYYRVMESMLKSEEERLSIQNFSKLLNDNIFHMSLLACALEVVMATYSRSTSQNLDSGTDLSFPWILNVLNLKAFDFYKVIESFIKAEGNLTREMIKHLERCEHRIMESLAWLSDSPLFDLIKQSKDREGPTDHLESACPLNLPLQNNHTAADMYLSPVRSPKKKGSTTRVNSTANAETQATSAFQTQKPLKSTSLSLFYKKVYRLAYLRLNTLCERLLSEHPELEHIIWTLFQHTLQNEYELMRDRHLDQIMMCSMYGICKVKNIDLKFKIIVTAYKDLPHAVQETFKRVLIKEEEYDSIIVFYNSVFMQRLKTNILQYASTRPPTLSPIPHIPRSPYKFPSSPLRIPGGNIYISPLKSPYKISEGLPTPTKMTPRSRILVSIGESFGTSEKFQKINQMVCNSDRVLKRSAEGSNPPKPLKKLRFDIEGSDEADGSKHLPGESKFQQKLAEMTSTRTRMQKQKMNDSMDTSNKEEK

Variants of B1 are the subject of this experiment. Particulars: with rb_human RB1, P06400.
Turning to I178R;C180G;E182A, the “effect of a mutation on the interaction” value was “decreasing interaction strength”.

The record behind these values is IntAct's records for PubMed 19017275.
